{"source": "paper PMC7935953", "about": "“Insights on autophagosome–lysosome tethering from structural and biochemical characterization of human autophagy factor EPG5” (Communications Biology, 2021)", "molecules": {"B1": {"name": "hEPG5^Δ1–1198: hEPG5 truncation mutant which excludes the entire N-terminal region (protein)", "chain": "YHCDRSLLSSLVSWIVAGNITPSFVEGLATPTQVWFAWTVLNMESIFEEDSQLRRVIEGELVINSAFTPDQALKKAQTQLKLPIVPSLQRLLIYRWAHQALVTPSDHPLLPLIWQKFFLLYLHRPGPQYGLPIDGCIGRRFFQSPAHINLLKEMKRRLTEVADFHHAASKALRVPAEGSEGLPESHSGTPGYLTSPELHKELVRLFNVYILWLEDENFQKGDTYIPSLPKHYDIHRLAKVMQNQQDLWMEYLNMERIYHEFQETVGLWTQAKLESHSTPCSLSVQLDFTDPLLAKERVLSNLRKHEAPQPPLALHPTKPPVPVISSAVLLSQKDATQLVCTDLNLLQQQARTAALRESQQVALDGELLDTMPKQYVNREEQTTLHLECRGSSGKKCQGAAVVTVQFEGMHKNEAISQQLHVLRKEVKQLQAEAAKPPSLNIVEAAVHAENLITALVNAYKLQPTPGIQKVGISLFFTIVDYVSDETQRHPPTRQFFTSCIEILGQVFISGIKSECRKVLETILKNSRLCSLLSPFFTPNAAPAEFIQLYEQVVKFLSEDNSDMIFMLLTKFDLKQWLSATKPPLSDRTRLLESIHLALTAWGLEPDEDILMPFNLFCKHWTYLLLYQFPDQYSDILRLLMQSSAEQLLSPECWKATLRALGCCAPSCQQGAASTEGAVLPSSSDALLSDKQVMETIQWLSDFFYKLRLSKMDFKSFGLFSKWSPYMADVKTFLGYLVKRLIDLEMTCLAQDPTASRKTVLKSLHSVIIQLFKPWILVLEDNESSQQRHYPWLESDTVVASSIVQLFTDCIDSLHESFKDKLLPGDAGALWLHLMHYCEACTAPKMPEFILYAFHSTYRKLPWKDLHPDQMLMEAFFKVERGSPKSCFLFLGSVLCEVNWVSVLSDAWNSSPHPETRSMIVCLLFMMILLAKEVQLVDQTDSPLLSLLGQTSSLSWHLVDIVSYQSVLSYFSSHYPPSIILAKESYAELIMKLLKVSAGLSIPTDSQKHLDAVPKCQAFTHQMVQFLSTLEQNGKITLAVLEQEMSKLLDDIIVFNPPDMDSQTRHMALSSLFMEVLMMMNNATIPTAEFLRGSIRTWIGQKMHGLVVLPLLTAACQSLASVRHMAETTEACITAYFKESPLNQNSGWGPILVSLQVPELTMEEFLQECLTLGSYLTLYVYLLQCLNSEQTLRNEMKVLLILSKWLEQVYPSSVEEEAKLFLWWHQVLQLSLIQTEQNDSVLTESVIRILLLVQSRQNLVAEERLSSGILGAIGFGRKSPLSNRFRVVARSMAAFLSVQVPMEDQIRLRPGSELHLTPKAQQALNALESMASSKQYVEYQDQILQATQFIRHPGHCLQDGKSFLALLVNCLYPEVHYLDHIR", "modifications": "left off: His, end not stated, kept | FLAG, end not stated, kept", "notes": "hEPG5 truncation mutant which excludes the entire N-terminal region"}}, "molecular_target": "T1, GABARAP (Homo sapiens, UniProt O95166)", "T1 construct": "made in house; host or cells: E. coli (T7 Express)", "T1 sequence (O95166 whole entry)": "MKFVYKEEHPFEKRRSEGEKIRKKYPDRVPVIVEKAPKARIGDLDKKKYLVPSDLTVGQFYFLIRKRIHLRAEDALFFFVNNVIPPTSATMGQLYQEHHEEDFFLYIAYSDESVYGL", "assay": "GST pull-down of hEPG5 (wild type and mutants) with GST-GABARAP bait", "format": "binding", "details": "anti-FLAG western blot, compared to wild-type hEPG5, triplicates", "experimental": "For GST pull-down analysis, N-terminally GST-tagged LC3 and GABARAP proteins were expressed in Escherichia coli (T7 Express) cells. The cells were induced with 1 mM isopropyl β-d-1-thiogalacpyranoside [IPTG] for 4 h at 25 °C. The cell pellets were resuspended in 25 mL buffer E (50 mM Tris pH 8.0, 150 mM NaCl, and 1 mM PMSF). Cells were then sonicated for four cycles consisting of 1 min sonication followed by 2 min cooling on ice, with duty cycle set to 50% and output control at 5. Cell lysate was then centrifuged at 20,950 × g for 40 min at 4 °C. Supernatant was incubated for 1 h at 4 °C with glutathione resin (50% slurry, GenScript) pre-equilibrated with buffer E, while gently inverting. Resin was returned to the column and washed with buffer E. Proteins were eluted with 10 mM reduced glutathione (GoldBio) in buffer F (50 mM Tris pH 8.0, 150 mM NaCl). Free glutathione was removed by dialysis in buffer F and protein concentration was measured by spectrophotometry (NanoDrop, Thermo Scientific). Glycerol was added to a final concentration of 5%, then solutions were aliquoted and stored at −70 °C.\nPulldowns were performed with a 50 µL slurry of glutathione resin (50% slurry, GenScript). […]\nAll experiments were performed in triplicates. […] Intensity of His-FLAG-hEPG5, GST (control), and GST-LC3/GABARAP subfamily proteins in pull-down assays was quantified using Bio-Rad Image Lab Software v6.0. […]"}
{"molecule": "B1", "values": [{"measurement": "binding to GABARAP in GST pull-down, in words", "result": "but not hEPG5^Δ1–1198 was pulled down by GABARAP"}]}
